In patent publication US20170081404A1 one finds koff, kon and Kd data, which are given here for 1 molecule.

The target of assay [1] is Biotin-GCN4 peptide (yeast). Description: SPR (Biacore 3000, 25 C): Biotin-GCN4 peptide captured on immobilised streptavidin (CM5 chip), Fab-scFv injected as analyte, 1:1 binding model.
For assay [2], the target named is Biotin-GCN4 peptide (yeast). Description: SPR, Biacore 3000, 25 C; Biotin-GCN4 peptide captured on immobilised streptavidin (CM5), Fab-scFv injected in three-fold dilutions from 30 nM, 1:1 binding model. (In general: SPR reads the build-up and loss of mass on a sensor chip optically.)

B1: Fab A-scFv '52SR4' (protein, part only; not given: Fab A heavy and light chains, not shown: another chain or arm of the molecule; a dimerising Fc or GST; small tags and cut ends)
scFv: DAVVTQESALTSSPGETVTLTCRSSTGAVTTSNYASWVQEKPDHLFTGLIGGTNNRAPGVPARFSGSLIGDKAALTITGAQTEDEAIYFCVLWYSDHWVFGCGTKLTVLGGGGGSGGGGSGGGGSGGGGSDVQLQQSGPGLVAPSQSLSITCTVSGFLLTDYGVNWVRQSPGKCLEWLGVIWGDGITDYNSALKSRLSVTKDNSKSQVFLKMNSLQSGDSARYYCVTGLFDYWGQGTTLTVSSAAAHHHHHHEQKLISEEDL
Turning to B1, in assay [1], the koff – broadly, a measure of how fast the partners let go of each other – was found to be 0.00027 s⁻¹ and the kon – broadly, a measure of how fast the partners come together – is 510000 M⁻¹ s⁻¹. The Kd (in general, a measure of binding affinity in units of concentration) in assay [2] was determined as 0.516 nM.
